Molecular target: T1, recombinant AaTI (Aedes aegypti Kazal-type serine protease inhibitor) (Aedes aegypti, UniProt Q177W0 23-91)
T1 construct: recombinant protein of 9.85 kDa inclusive of His-tag; also called rAaTI; wild-type rAaTI; source: bacterial system, purified
T1 sequence (looked up): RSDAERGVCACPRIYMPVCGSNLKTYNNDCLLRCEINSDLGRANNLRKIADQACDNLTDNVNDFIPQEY
Experiment: BLI; rAaTI-preloaded biosensors immersed into plasmin solutions of different concentrations; association and dissociation curves fitted globally to 1:1 kinetics
Details: both partners purified

B1: human plasmin (enzyme)
chain 1: KVYLSECKTGNGKNYRGTMSKTKNGITCQKWSSTSPHRPRFSPATHPSEGLEENYCRNPDNDPQGPWCYTTDPEKRYDYCDILECEEECMHCSGENYDGKISKTMSGLECQAWDSQSPHAHGYIPSKFPNKNLKKNYCRNPDRELRPWCFTTDPNKRWELCDIPRCTTPPPSSGPTYQCLKGTGENYRGNVAVTVSGHTCQHWSAQTPHTHNRTPENFPCKNLDENYCRNPDGKRAPWCHTTNSQVRWEYCKIPSCDSSPVSTEQLAPTAPPELTPVVQDCYHGDGQSYRGTSSTTTTGKKCQSWSSMTPHRHQKTPENYPNAGLTMNYCRNPDADKGPWCFTTDPSVRWEYCNLKKCSGTEASVVAPPPVVLLPDVETPSEEDCMFGNGKGYRGKRATTVTGTPCQDWAAQEPHRHSIFTPETNPRAGLEKNYCRNPDGDVGGPWCYTTNPRKLYDYCDVPQCAAPSFDCGKPQVEPKKCPGR
chain 2: VVGGCVAHPHSWPWQVSLRTRFGMHFCGGTLISPEWVLTAAHCLEKSPRPSSYKVILGAHQEVNLEPHVQEIEVSRLFLEPTRKDIALLKLSSPAVITDKVIPACLPSPNYVVADRTECFITGWGETQGTFGAGLLKEAQLPVIENKVCNRYEFLNGRVQSTELCAGHLAGGTDSCQGDSGGPLVCFEKDKYILQGVTSWGLGCARPNKPGVYVRVSRFVTWIEGVMRNN
modifications: active two-chain plasmin (Lys-plasmin limits from the UniProt chain features; the paper prints none), heavy and light chains joined by interchain disulfides; natural glycosylation
  Kd: 62.8 nM

— PMC6854080, “Increased Mosquito Midgut Infection by Dengue Virus Recruitment of Plasmin Is Blocked by an Endogenous Kazal-type Inhibitor” (iScience, 2019)
